What was measured:
[1] = molecular target: Hsp16.3, 16 kDa alpha-crystallin like heat shock protein of Mycobacterium tuberculosis, recombinant 6xHis-tagged (Mycobacterium tuberculosis) (UniProt P9WMK1); experiment: reverse phage ELISA on coated Hsp16.3, anti-M13-HRP, A405
[2] = molecular target: Hsp16.3, 16 kDa alpha-crystallin like heat shock protein of Mycobacterium tuberculosis, recombinant 6xHis-tagged (Mycobacterium tuberculosis) (UniProt P9WMK1); experiment: cell-based or functional assay

Hsp16.3, 16 kDa alpha-crystallin like heat shock protein of Mycobacterium tuberculosis, recombinant 6xHis-tagged (Mycobacterium tuberculosis), sequence (P9WMK1 1-144, tags left off): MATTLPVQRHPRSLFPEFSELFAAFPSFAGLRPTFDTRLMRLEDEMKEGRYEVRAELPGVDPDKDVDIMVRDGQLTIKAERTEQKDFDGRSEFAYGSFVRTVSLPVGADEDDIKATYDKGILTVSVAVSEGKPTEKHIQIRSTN

Substance: M13 phage clone displaying peptide Seq ID 9 (Lys-Met-His-Ala-Thr-Asn-His), from Ph.D.-7 library
- fold binding over non-specific control BSA [1]: 3 fold

Substance: synthetic peptide Seq ID 10 (Seq ID 9 with Gly-Gly-Gly-Ser at the C-terminal end), C-terminus amidated
- IC50 of inhibition of chaperon activity of Hsp16.3 (ADH heat aggregation assay, A360) [2]: 47 µM
- aggregation of ADH restored in the presence of Hsp16.3 and 100 µM peptide (A360 at saturation) [2]: 70%
